Data reported in US20060275828A1 (CENTRE NATIONAL DE LA RECHERCHE SCIENTIFIQUE, published 2006).
Where no end group is shown, it is not given here.

T1: wild-type rat NK2R receptor of tachykinins (construct pCEP4-NK2R), expressed on HEK 293 cells (rat, UniProt P16610 1-390)
T1 construct: whole, on cells; Stably expressed in HEK 293 cells; also called NK2R-WT; NK2R WT
T1 sequence (looked up): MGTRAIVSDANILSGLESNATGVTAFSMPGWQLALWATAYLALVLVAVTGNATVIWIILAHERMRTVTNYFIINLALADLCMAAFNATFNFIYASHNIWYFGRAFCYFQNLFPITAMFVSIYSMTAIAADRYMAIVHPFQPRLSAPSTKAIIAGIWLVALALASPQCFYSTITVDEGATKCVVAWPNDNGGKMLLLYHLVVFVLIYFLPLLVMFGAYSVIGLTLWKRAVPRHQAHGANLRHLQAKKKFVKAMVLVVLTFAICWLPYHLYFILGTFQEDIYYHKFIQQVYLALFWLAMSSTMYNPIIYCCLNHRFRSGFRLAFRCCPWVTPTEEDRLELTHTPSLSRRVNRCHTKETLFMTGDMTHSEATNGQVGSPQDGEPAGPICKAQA


Columns and labels:
[1] = molecular target: fluorescent receptor NK2R-RF1 (construct pCEP4-NK2R-RF1): EGFP fused between the alpha7 signal peptide and the amino-terminal end of the rat NK2R receptor, expressed on HEK 293 cells (Aequorea victoria; rat) (UniProt P16610); experiment: displacement of 3H SR 48968 on HEK 293 cells expressing NK2R-RF1, filtration
[2] = molecular target: wild-type rat NK2R receptor of tachykinins (construct pCEP4-NK2R), expressed on HEK 293 cells (rat) (UniProt P16610); experiment: displacement of 3H SR 48968 on HEK 293 cells expressing wild-type NK2R, filtration
[3] = molecular target: fluorescent receptor NK2R-RF1 (construct pCEP4-NK2R-RF1): EGFP fused between the alpha7 signal peptide and the amino-terminal end of the rat NK2R receptor, expressed on HEK 293 cells (Aequorea victoria; rat) (UniProt P16610); experiment: displacement of 3H SR 48968 on HEK 293 cells expressing NK2R-RF1, filtration (FIG. 8b)
[4] = molecular target: T1, wild-type rat NK2R receptor of …; experiment: displacement of 3H SR 48968 on HEK 293 cells expressing NK2R-WT, filtration (FIG. 8a)
Description: The incubation is carried out for one hour at 4° C. Filtration is carried out at the end of incubation, as described in 3b).

[5] = molecular target: fluorescent receptor NK2R-RF1 (construct pCEP4-NK2R-RF1): EGFP fused between the alpha7 signal peptide and the amino-terminal end of the rat NK2R receptor, expressed on HEK 293 cells (Aequorea victoria; rat) (UniProt P16610); experiment: FRET saturation: amplitude of EGFP fluorescence extinction against NKA BO I concentration, cells expressing NK2R-RF1 (FIG. 13)
[6] = molecular target: fluorescent receptor NK2R-RF1 (construct pCEP4-NK2R-RF1): EGFP fused between the alpha7 signal peptide and the amino-terminal end of the rat NK2R receptor, expressed on HEK 293 cells (Aequorea victoria; rat) (UniProt P16610); experiment: FRET saturation on cells expressing NK2R-RF1, 0 to 256 nM NKA BO I

| Ki [1] [nM] | Ki [2] [nM] | Ki [3] [nM] | Ki [4] [nM] | Kd [5] [nM] | Kd [6] [nM] | Molecule |
| --- | --- | --- | --- | --- | --- | --- |
| 61 | 53 |  |  |  |  | MEN 10,376 (Bachem) (peptide) |
|  |  | 2.1 |  |  |  | neurokinin A (from UniProt P20366 98-107) (peptide) |
|  |  | 16.1 | 16.1 | 24 | 20 to 30 | HKTDSFVGLM (peptide, UniProt P20366 98-107, looked up, also: BODIPY 530/550 IA label, site not given here, mature; HPLC-purified reaction product of NKA with BODIPY 530/550 IA; also called NKA BO 1; NKA-Bodipy derivative) [NKA BO I (neurokinin A labeled with BODIPY 530/550 IA)] |
